Measured values as given in US20230104540A1 (NEURACLE SCIENCE, published 2023).

Experiments:
Fam19A1-M1 = test: ELISA on coated FAM19A1 protein (500 ng), one antibody amount, anti-hKappa-HRP (Example 4)
Fam19A1-M2 = test: as above
CD58-Fc = target: T1, CD58-Fc (UniProt P19256 29-215, limits assumed); test: mono scFv-phage ELISA on coated antigen, single point (Example 2)
T1 construct: Control antigen
T1 sequence (looked up): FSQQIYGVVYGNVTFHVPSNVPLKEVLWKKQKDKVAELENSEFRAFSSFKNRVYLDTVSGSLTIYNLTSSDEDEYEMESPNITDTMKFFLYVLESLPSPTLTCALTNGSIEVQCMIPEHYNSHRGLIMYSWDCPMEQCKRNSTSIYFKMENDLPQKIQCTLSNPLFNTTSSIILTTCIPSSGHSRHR

hRAGE-Fc = target: T2, hRAGE-Fc (human (by the label hRAGE), UniProt Q15109 23-344, limits assumed); test: as above
T2 construct: Control antigen
T2 sequence (Q15109 23-344 limits assumed): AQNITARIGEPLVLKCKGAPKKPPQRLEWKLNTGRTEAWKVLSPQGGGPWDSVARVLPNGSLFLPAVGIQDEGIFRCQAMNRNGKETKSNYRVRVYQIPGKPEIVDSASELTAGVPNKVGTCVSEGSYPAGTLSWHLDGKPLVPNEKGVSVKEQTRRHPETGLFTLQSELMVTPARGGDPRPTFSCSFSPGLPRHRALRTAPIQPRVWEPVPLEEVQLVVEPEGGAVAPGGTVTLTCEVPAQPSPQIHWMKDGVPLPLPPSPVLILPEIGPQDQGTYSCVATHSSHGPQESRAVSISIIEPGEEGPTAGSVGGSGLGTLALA

AITR-Fc = target: T3, AITR-Fc (UniProt Q9Y5U5 26-161, limits assumed); test: as above
T3 construct: also called AIRTR
T3 sequence (looked up): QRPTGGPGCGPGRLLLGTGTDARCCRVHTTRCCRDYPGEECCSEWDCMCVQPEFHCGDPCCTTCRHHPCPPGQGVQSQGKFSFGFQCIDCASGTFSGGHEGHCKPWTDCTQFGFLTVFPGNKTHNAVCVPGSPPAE

FAM19A1 mutant M6 = FAM19A1 mutant M6 (Mus musculus (Mouse), UniProt Q7TPG8 20-133); test: ELISA on plate-coated mutant, anti-hKappa-HRP detection
Fam19A1-M3 = test: ELISA on coated FAM19A1 protein (500 ng), one antibody amount, anti-hKappa-HRP (Example 4)
Fam19A1-M4 = test: as above
Fam19A1-M5 = test: as above
Fam19A1-M7 = test: as above
[1] = target: Wild-type FAM19A1 (Table 10) (Mus musculus (Mouse), UniProt Q7TPG8 20-133); test: as above
[2] = target: T4, FAM19A1 protein (ELISA of Example 3) (Homo sapiens (Human), UniProt Q7Z5A9 20-133); test: ELISA, IgG titrated from 0 to 100 nM on FAM19A1 protein (Example 3); Kd row of the table under the graph, R square 0.9527, the concentration axis reads Cons (nM); fitted curve levels off at A450 about 2.8, last point at 100 nM about 3.1
[3] = target: T4, FAM19A1 protein (ELISA of Example 3); test: ELISA, IgG titrated from 0 to 100 nM on FAM19A1 protein (Example 3); Kd row of the table under the graph, R square 0.9106, the concentration axis reads Cons (nM); fitted curve levels off low, at A450 about 0.75
[4] = target: T4, FAM19A1 protein (ELISA of Example 3); test: ELISA, IgG titrated from 0 to 100 nM on FAM19A1 protein (Example 3); Kd row of the table under the graph, R square 0.9168, the concentration axis reads Cons (nM); the curve is faint and not told apart from that of 1A11

B1: anti-FAM19A1-1A11 (antibody, V domains shown)
VH: QVQLVESGAEVRKPGASVKVSCKASGYSFTGYDINWVRQAPGQGLEWMGWMNPSSGNTGYAQKFQGRVTMTRDSSISTAYMELSSLRSEDTAVYYCARALNSVYYYHALDVWGQGTTITVSS
VL: SYELTQPPSASVSPGQTASITCSGDRLHNKYTSWYQQKPGQSPLLVIYQDAKRPSGIPERFSGSSSRGTATLTISGTQATDEADYYCQTWDRSTGVFGTGTKVTVL
notes: also called anti-FAM19A1 IgG1 antibody clone 1A11; A1-1A11-Ybio
B1: binds (Fam19A1-M1); binds (Fam19A1-M2).

B2: Anti-FAM19A1 1A11 mono scFv-phage clone (scFv, V domains shown)
VH: B1 VH
VL: B1 VL
B2: no binding (CD58-Fc); no binding (hRAGE-Fc); no binding (AITR-Fc).

B3: anti-FAM19A1 IgG1 antibody clone 1C1 (antibody, V domains shown)
VH: QVQLVESGGGVAQPGRSLRLSCAASGFAFSDYGIHWVRQAPGKGLEWVALISYDGSKRSYADSVKGRFAISRDNSKNTLYLQMNSLRAEDTAVYYCARPGDYALAFDLWGQGTMVTVSS
VL: QTVVTQEPSFSVSPGETVTLTCGLSSGSVSTSHFPSWYRQTPGQAPRPLIDSRNARSIGVPDRFSGSIVGTKATLTISGAQAEDECNYYCALYMGRGNWVFGGGTKLTVL
notes: also called A1-1C1; FAM19A1-1C1
B3: no binding (FAM19A1 mutant M6); binds (Fam19A1-M1); binds (Fam19A1-M2). B3: binds (Fam19A1-M3); binds (Fam19A1-M4); binds (Fam19A1-M5). For the same binder, the binding result (Fam19A1-M7) was “binds”, the binding result [1] was “binds” and the Kd [2] was 1.13 nM.

B4: Anti-FAM19A1 1C1 mono scFv-phage clone (scFv, V domains shown)
VH: B3 VH
VL: B3 VL
B4: no binding (CD58-Fc); no binding (hRAGE-Fc); no binding (AITR-Fc).

B5: anti-FAM19A1-2G7 (antibody, V domains shown)
VH: QVQLVESGGGLVKPGRSLSLSCTTSGFPFGDHAINWVRQAPGKGLEWVGFIRSNTYGGTTQYAASVEGRFTISRDDSKSIAYLQMNSLRAEDTAVYYCTKDITGGGFWSDYGDYFDAFDFWGQGTMVTVSS
VL: SYELTQPLSVSVSPGQTASISCSGDKLGYKYASWYQQKPGQSPVVVIYQDKKRPSGIPERFSGSNSGNTATLTISGTQPMDEADYYCQAWDSGTASHVFGTGTKVTVL
notes: also called anti-FAM19A1 IgG1 antibody clone 2G7
With B5 the Kd [3] was 1.89 nM.

B6: Anti-FAM19A1 2G7 mono scFv-phage clone (scFv, V domains shown)
VH: B5 VH
VL: B5 VL
B6: no binding (CD58-Fc); no binding (hRAGE-Fc); no binding (AITR-Fc).

B7: anti-FAM19A1-3A8 (antibody, V domains shown)
VH: QVQLQQSGPGLVKPSETLSLICSVSGDAITSGSYYWGWIRQSPGRGLEWIGEISHSGSTDYNPSLKSRVTISVDKSRNQFSLRLNSVTAVDTAVYYCAGDTALVGAYSIWGQGTMVTVSS
VL: SYELTQAPSLSVSPGQTANIICSGDNLRTKYVSWYQQKPGQSPLLVIYQDTRRPSGIPARFSGSNSGNTATLTISGTQTRDESTYYCMTWDVDTTSMIFGGGTKLTVL
notes: also called anti-FAM19A1 IgG1 antibody clone 3A8
B7 showed a Kd [4] of 56 nM.

B8: Anti-FAM19A1 3A8 mono scFv-phage clone (scFv, V domains shown)
VH: B7 VH
VL: B7 VL
B8: no binding (CD58-Fc); no binding (hRAGE-Fc); no binding (AITR-Fc).
